Measured values from paper doi:10.1101/2022.02.24.481830 (bioRxiv, 2022).

Tests used:
H3 COBRA NG2 HA protein = H3 COBRA NG2 HA protein (Influenza A virus H3, synthetic …)
H3 COBRA TJ5 HA protein = H3 COBRA TJ5 HA protein (Influenza A virus H3, synthetic …)
H3 COBRA J4 HA protein = H3 COBRA J4 HA protein (Influenza A virus H3, synthetic …)

Measured: binding result

B1: TJ5-16 (antibody, V domains shown)
VH: EVQLVQSGAEVKKPGASVKVSCKASGYTFTGYYIYWVRQAPGQGLEWMGWINPNGGGTNYAQKFQGRVTMTRDTSITTAYMELSRLRSDDSAVYYCAARAGPGTQDAQTIDFWGQGTLVTVSS
VL: SYELTQPPSVSVSPGQTARITCSGDALPKQYGYWYQQKPGQAPVLVIYKDSERPSGIPERFSGSSSGTTVTLTISGVQAEDEADYYCQSADSSGSYWVFGGGTKLT
binds: H3 COBRA NG2 HA protein | H3 COBRA TJ5 HA protein | H3 COBRA J4 HA protein
